Laboratory results as given in patent publication US20260167959A1, “APTAZYME-BASED REGULATABLE GENE EXPRESSION SYSTEMS” (REJUVENATE BIO INC, priority 2022, published 2026).

System: Renilla luciferase RNA
Experiment: Barcoded aptazyme variant library screen: un-cleaved Renilla luciferase RNA by barcode read counts, HEK293-T cells
Type: cell-based
Settings: un-cleaved Renilla luciferase RNA, HEK293-T cells cultured with 1 mM theophylline (ON) over without theophylline (OFF); barcode read counts, triplicate
Summary of the method: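 Barcode sequencing of cDNA versus DNA, normalized per aptazyme, gave the un-cleaved Renilla luciferase RNA fraction and fold-change with versus without theophylline (triplicates). Library: T3H48 ribozyme with one of seven theophylline aptamer variants inserted at each position, placed in the Renilla 3′ UTR of a dual-luciferase vector.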

Molecule | Fold change in RNA expression between the ON state and the OFF state [fold]
RA147 (nucleic acid, expressed or natural sequence) DNA: GCGCGTCCTGGATTCGCGGAAACGCGTACATCCAGCTGACGAGTAGAATACCAGCATCGTCTTGATGCCCTTGGAAGTCTCCCAAATAGGACGAAACGCGC | 1.4
RA130 (nucleic acid, expressed or natural sequence) DNA: GCGCGTCCTGGATTCGCGGAAACGCGTACATCCAGCTGAGAATACCAGCATCGTCTTGATGCCCTTGGAAGTCTCGACGAGTCCCAAATAGGACGAAACGCGC | 1.4
RA146 (nucleic acid, expressed or natural sequence) DNA: GCGCGTCCTGGATTCGCGGAAACGCGTACATCCAGCTGACGAGTCCCAAATAGGAATACCAGCATCGTCTTGATGCCCTTGGAAGTCCGGACGAAACGCGC | 1.4
RA129 (nucleic acid, expressed or natural sequence) DNA: GCGCGTCCTGGATTCCACTTCGGGTACATCCAGCTGACGAGTCCCAAATAGGACGAAACGCGC | 1.4
RA131 (nucleic acid, expressed or natural sequence) DNA: GCGCGTCCTAGAATACCAGCATCGTCTTGATGCCCTTGGAAGTCTGGATTCGCGGAAACGCGTACATCCAGCTGACGAGTCCCAAATAGGACGAAACGCGC | 1.4
RA133 (nucleic acid, expressed or natural sequence) DNA: GCGCGAGAATACCAGCATCGTCTTGATGCCCTTGGAAGTCTCGTCCTGGATTCGCGGAAACGCGTACATCCAGCTGACGAGTCCCAAATAGGACGAAACGCGC | 1.4
RA014 (nucleic acid, expressed or natural sequence) DNA: GCGCGTCCTGGATTCGCGGAAACGCGTACATCCAGCTGACGAGTCCCAAATAGGACGAAACGGAATACCAGCATCGTCTTGATGCCCTTGGAAGTCCGCGC | 3.1
RA126 (nucleic acid, expressed or natural sequence) DNA: GCGCGTCCTGGATTCGCGGAAACGCGTACAAGAATACCAGCATCGTCTTGATGCCCTTGGAAGTCTTCCAGCTGACGAGTCCCAAATAGGACGAAACGCGC | 1.5
RA136 (nucleic acid, expressed or natural sequence) DNA: GCGCGTCCTGGATTCGCGGAAACGCGTACATCCAGCTGACGAGTCCCAAATAGGACGAAACGGAGAATACCAGCATCGTCTTGATGCCCTTGGAAGTCTCCGC | 1.4
RA127 (nucleic acid, expressed or natural sequence) DNA: GCGCGTCCTGGATTCGCGGAAACGCGTACATCCAGCTGACGAGTCCCAAATAGGACGAAACGCGCCGGAATACCAGCATCGTCTTGATGCCCTTGGAAGTCCGGC | 1.4
RA128 (nucleic acid, expressed or natural sequence) DNA: GCGCGTCCTGGATTCGCGGAAACGCGTAAGTGATACCAGCATCGTCTTGATGCCCTTGGCAGCACTCATCCAGCTGACGAGTCCCAAATAGGACGAAACGCGC | 1.4
RA139 (nucleic acid, expressed or natural sequence) DNA: GGAGAATACCAGCATCGTCTTGATGCCCTTGGAAGTCTCCGCGTCCTGGATTCGCGGAAACGCGTACATCCAGCTGACGAGTCCCAAATAGGACGAAACGCGC | 1.4
RA142 (nucleic acid, expressed or natural sequence) DNA: GCGCGTCCTGGATTCGCGGAAACGCGTACGGAATACCAGCATCGTCTTGATGCCCTTGGAAGTCCATCCAGCTGACGAGTCCCAAATAGGACGAAACGCGC | 1.4
RA138 (nucleic acid, expressed or natural sequence) DNA: GCGCGGAATACCAGCATCGTCTTGATGCCCTTGGAAGTCCGCGTCCTGGATTCGCGGAAACGCGTACATCCAGCTGACGAGTCCCAAATAGGACGAAACGCGC | 1.4
RA132 (nucleic acid, expressed or natural sequence) DNA: GCGCGTCCTGGATTCGCGGAATACCAGCATCGTCTTGATGCCCTTGGAAGTCCGGAAACGCGTACATCCAGCTGACGAGTCCCAAATAGGACGAAACGCGC | 1.4
RA013 (nucleic acid, expressed or natural sequence) DNA: GCGCGTCCTGGATTCGCGGAAACGCGTACATCCAGCTGACGAGTCCCAAATAGGACGAAACGAGAATACCAGCATCGTCTTGATGCCCTTGGAAGTCTCGC | 3.3
RA144 (nucleic acid, expressed or natural sequence) DNA: GCGCGCGAGAATACCAGCATCGTCTTGATGCCCTTGGAAGTCTCGTCCTGGATTCGCGGAAACGCGTACATCCAGCTGACGAGTCCCAAATAGGACGAAACGCGC | 1.4
RA124 (nucleic acid, expressed or natural sequence) DNA: GCGCGTCCTGGATTCGCGGAAACGCGTACATCCAGCTGACGCGGAATACCAGCATCGTCTTGATGCCCTTGGAAGTCCGAGTCCCAAATAGGACGAAACGCGC | 1.5
RA143 (nucleic acid, expressed or natural sequence) DNA: GCGCGTCCTGGATTCGCGGAAACGCGTACATCCAGCTGACGAGTGATACCAGCATCGTCTTGATGCCCTTGGCAGCACTAGTCCCAAATAGGACGAAACGCGC | 1.4
RA134 (nucleic acid, expressed or natural sequence) DNA: GCGCGTCCTGGATTCGCGGAAACGCGTACATCCAGCTGACGAGTCGGAATACCAGCATCGTCTTGATGCCCTTGGAAGTCCGCCCAAATAGGACGAAACGCGC | 1.4
RA141 (nucleic acid, expressed or natural sequence) DNA: GCGCGTCCTGGATTCGCGGAAACGCGTACATCCGGAATACCAGCATCGTCTTGATGCCCTTGGAAGTCCGGCCAGCTGACGAGTCCCAAATAGGACGAAACGCGC | 1.4
RA012 (nucleic acid, expressed or natural sequence) DNA: GCGCGTCCTGGATTCGCGGAAACAGAATACCAGCATCGTCTTGATGCCCTTGGAAGTCTGCGTACATCCAGCTGACGAGTCCCAAATAGGACGAAACGCGC | 3.4
RA145 (nucleic acid, expressed or natural sequence) DNA: GCGCGGAATACCAGCATCGTCTTGATGCCCTTGGAAGTCCGTCCTGGATTCGCGGAAACGCGTACATCCAGCTGACGAGTCCCAAATAGGACGAAACGCGC | 1.4
RA137 (nucleic acid, expressed or natural sequence) DNA: GCGCGTCCTGGATTCGCGGAAACGCGTACGAGAATACCAGCATCGTCTTGATGCCCTTGGAAGTCTCATCCAGCTGACGAGTCCCAAATAGGACGAAACGCGC | 1.4
RA148 (nucleic acid, expressed or natural sequence) DNA: GCGCGTCCTGGATTCGCGGAAACGCGTACATCCAGCTGACGAGAGAATACCAGCATCGTCTTGATGCCCTTGGAAGTCTTCCCAAATAGGACGAAACGCGC | 1.4
RA135 (nucleic acid, expressed or natural sequence) DNA: GCGCGTCCTGGATTCGCGGAAACGAGTGATACCAGCATCGTCTTGATGCCCTTGGCAGCACTCGTACATCCAGCTGACGAGTCCCAAATAGGACGAAACGCGC | 1.4
RA140 (nucleic acid, expressed or natural sequence) DNA: GCGCGTCCTGGATTCGCGGAAACGCGTACATCCAGCTGACGAGTCCGGAATACCAGCATCGTCTTGATGCCCTTGGAAGTCCGGCCCAAATAGGACGAAACGCGC | 1.4
RA125 (nucleic acid, expressed or natural sequence) DNA: GCGCGTCCTGGATTCGCGGAAACGCGTACATCCAGCTGACGAGTCCCGGAATACCAGCATCGTCTTGATGCCCTTGGAAGTCCGGCCAAATAGGACGAAACGCGC | 1.5
